Values quoted from earlier work, collected in patent publication US7776558B2, “Human G protein-coupled receptor and modulators thereof for the treatment of cell death-related disorders” (Arena Pharmaceuticals, Inc., priority 2003, dated 2010).

Columns and labels:
FPRL2 = molecular target: T1, FPRL2 (Homo sapiens, UniProt P25089); conditions: cited from earlier work
T1 sequence (P25089 1-353): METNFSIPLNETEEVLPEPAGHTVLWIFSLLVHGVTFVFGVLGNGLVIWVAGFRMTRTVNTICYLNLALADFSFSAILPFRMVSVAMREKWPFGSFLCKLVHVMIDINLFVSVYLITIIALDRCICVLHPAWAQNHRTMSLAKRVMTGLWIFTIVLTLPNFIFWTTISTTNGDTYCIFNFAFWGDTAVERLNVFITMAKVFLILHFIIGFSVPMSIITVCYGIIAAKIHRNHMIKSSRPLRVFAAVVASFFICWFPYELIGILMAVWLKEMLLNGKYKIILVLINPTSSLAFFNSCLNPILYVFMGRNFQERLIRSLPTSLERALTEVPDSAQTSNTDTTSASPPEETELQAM

[1] = molecular target: T2, FPRL2 on mature human dendritic cells (Homo sapiens, UniProt P25089); conditions: Yang et al. 2002; cited from earlier work
T2 construct: host or cells: mature human dendritic cells
T2 sequence (P25089 1-353): T1 sequence (P25089 1-353)

| Molecule | Ligand status at FPRL2 (FPRL2) | Binding to FPRL2 [1] | Intracellular Ca2+ [1] |
| --- | --- | --- | --- |
| CCCCC[C@H](O)/C=C/C=C\C=C\C=C\[C@@H](O)[C@@H](O)CCCC(=O)O [lipoxin A4] | shown not to be ligands for FPRL2 | – | – |
| WKYMVm | – | bind to FPRL2 on mature human dendritic cells | elicit an increase in intracellular Ca^2+ |
